Data from paper PMC3335016, “Analysis of the Nse3/MAGE-Binding Domain of the Nse4/EID Family Proteins” (PLoS ONE, 2012).

B1: EID2 WT peptide (aa 197-217) [modified: biotin, linked via the SGSG spacer; biotin, linked via the SGSG spacer] [human] / His-S-MAGEC2(129-339) [human] (parent complex)
chain 1: QRNPHRVDLDILTFTIALTAS
chain 2: GLPDSESSFTYTLDEKVAELVEFLLLKYEAEEPVTEAEMLMIVIKYKDYFPVILKRAREFMELLFGLALIEVGPDHFCVFANTVGLTDEGSDDEGMPENSLLIIILSVIFIKGNCASEEVIWEVLNAVGVYAGREHFVYGEPRELLTKVWVQGHYLEYREVPHSSPPYYEFLWGPRAHSESIKKKVLEFLAKLNNTVPSSFPSWYKDALKD

Variants of: B1
Test: PEPSCAN-ELISA; parent: 100; read off a plot

| Variant | percent of parent [%] |
| --- | --- |
| chain 1 QRAPHRVDLDILTFTIALTAS [chain 1 N3A] | ~58 |
| chain 1 QRNAHRVDLDILTFTIALTAS [chain 1 P4A] | ~45 |
| chain 1 QRNPARVDLDILTFTIALTAS [chain 1 H5A] | ~38 |
| chain 1 QRNPHRVALDILTFTIALTAS [chain 1 D8A] | ~86 |

Now from value to variant:

| percent of parent [%] | Variant |
| --- | --- |
| ~34 | chain 1 QRNPHRADLDILTFTIALTAS [chain 1 V7A] |
| ~67 | chain 1 QRNPHRVDLDILTFAIALTAS [chain 1 T15A] |
| ~46 | chain 1 QRNPHRVDLDILAFTIALTAS [chain 1 T13A] |
